This is an account of results in US20210388107A1.

Experiment [1] addresses human SIRPαBIT expressed on cells (human) (UniProt P78324). Nature of the experiment: flow cytometry, U937 cells.
Experiment [2] deals with cynomolgus monkey SIRPα expressed on ExpiCHO-S cells (cynomolgus monkey). As to the kind of experiment: flow cytometry, ExpiCHO-S cells. (In general: In flow cytometry, cells or beads pass a laser one at a time.)
Experiment [3] concerns the target human SIRPα1 expressed on cells (human) (UniProt P78324). As to the kind of experiment: flow cytometry, ExpiCHO-S cells.
In experiment [4] the target is human SIRPαBIT expressed on cells (human) (UniProt P78324). Nature of the experiment: flow cytometry, ExpiCHO-S cells.
human SIRPαBIT expressed on cells (human), sequence (P78324 31-504 limits assumed): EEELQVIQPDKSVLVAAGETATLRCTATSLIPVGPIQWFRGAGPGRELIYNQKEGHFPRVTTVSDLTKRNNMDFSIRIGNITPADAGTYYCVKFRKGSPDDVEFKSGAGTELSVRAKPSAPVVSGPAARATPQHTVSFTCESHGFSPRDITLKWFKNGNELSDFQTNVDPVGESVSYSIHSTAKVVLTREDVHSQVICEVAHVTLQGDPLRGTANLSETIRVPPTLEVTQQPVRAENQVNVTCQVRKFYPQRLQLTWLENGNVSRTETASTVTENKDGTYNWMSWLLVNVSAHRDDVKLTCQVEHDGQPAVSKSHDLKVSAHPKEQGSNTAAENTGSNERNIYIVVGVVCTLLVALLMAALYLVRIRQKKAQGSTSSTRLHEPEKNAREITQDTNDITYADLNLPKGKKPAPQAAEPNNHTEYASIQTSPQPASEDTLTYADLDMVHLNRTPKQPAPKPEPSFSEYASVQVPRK
For experiment [5], the target named is human SIRPβ1v1, AVI-tagged, biotinylated, monomeric form (human) (UniProt O00241). Nature of the experiment: SPR, captured monomeric antigen. For orientation: Surface plasmon resonance follows binding to a sensor surface in real time, without labels.
Experiment [6] concerns the target human SIRPβ1v2, AVI-tagged, biotinylated, monomeric form (human) (UniProt Q5TFQ8). As to the kind of experiment: SPR, captured monomeric antigen.
Experiment [7] deals with cynomolgus monkey SIRPα, extracellular domain, Avi-FXa-Fc tag (cynomolgus monkey). Nature of the experiment: SPR, captured biotinylated antigen.
cynomolgus monkey SIRPα, extracellular domain, Avi-FXa-Fc tag (cynomolgus monkey), sequence (chain, as listed by the source limits assumed): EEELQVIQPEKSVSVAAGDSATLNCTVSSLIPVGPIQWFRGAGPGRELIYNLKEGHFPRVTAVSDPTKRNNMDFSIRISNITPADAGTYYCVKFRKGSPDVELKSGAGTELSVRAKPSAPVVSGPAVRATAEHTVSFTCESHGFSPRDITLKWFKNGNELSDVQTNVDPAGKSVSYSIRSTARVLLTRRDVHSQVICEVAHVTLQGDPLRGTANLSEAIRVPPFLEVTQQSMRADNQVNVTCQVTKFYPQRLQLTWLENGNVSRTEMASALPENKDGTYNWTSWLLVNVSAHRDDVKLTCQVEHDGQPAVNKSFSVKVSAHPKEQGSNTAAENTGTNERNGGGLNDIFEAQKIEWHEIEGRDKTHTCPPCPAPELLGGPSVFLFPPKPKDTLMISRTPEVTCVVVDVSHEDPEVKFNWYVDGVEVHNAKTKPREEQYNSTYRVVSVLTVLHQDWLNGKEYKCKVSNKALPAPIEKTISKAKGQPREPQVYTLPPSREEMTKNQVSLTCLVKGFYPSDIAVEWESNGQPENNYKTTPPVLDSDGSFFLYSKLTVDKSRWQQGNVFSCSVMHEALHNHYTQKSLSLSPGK
The target of experiment [8] is human SIRPα1 extracellular domain 1-370, Avi-FXa-Fc tag (human). Nature of the experiment: SPR, captured biotinylated antigen.
human SIRPα1 extracellular domain 1-370, Avi-FXa-Fc tag (human), sequence (chain, as listed by the source limits assumed): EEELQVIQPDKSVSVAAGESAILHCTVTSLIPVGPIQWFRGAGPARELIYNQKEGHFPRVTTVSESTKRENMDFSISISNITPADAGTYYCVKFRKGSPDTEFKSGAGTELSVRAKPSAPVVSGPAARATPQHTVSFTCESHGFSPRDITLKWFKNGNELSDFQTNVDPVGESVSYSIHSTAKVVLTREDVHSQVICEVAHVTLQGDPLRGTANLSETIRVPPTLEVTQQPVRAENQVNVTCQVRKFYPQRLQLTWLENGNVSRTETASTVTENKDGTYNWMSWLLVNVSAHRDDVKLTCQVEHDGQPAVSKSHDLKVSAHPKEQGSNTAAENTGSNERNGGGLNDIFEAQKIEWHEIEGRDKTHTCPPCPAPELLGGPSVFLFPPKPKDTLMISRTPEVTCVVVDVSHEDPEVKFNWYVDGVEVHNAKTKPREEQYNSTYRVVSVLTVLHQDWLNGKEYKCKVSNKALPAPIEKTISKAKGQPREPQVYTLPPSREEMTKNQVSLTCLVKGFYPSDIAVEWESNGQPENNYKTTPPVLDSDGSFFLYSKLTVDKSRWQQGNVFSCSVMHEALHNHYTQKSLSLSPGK
The target of experiment [9] is human SIRPαBIT, extracellular domain 1-370, Avi-FXa-Fc tag (human). As to the kind of experiment: SPR, captured biotinylated antigen.
human SIRPαBIT, extracellular domain 1-370, Avi-FXa-Fc tag (human), sequence (chain, as listed by the source limits assumed): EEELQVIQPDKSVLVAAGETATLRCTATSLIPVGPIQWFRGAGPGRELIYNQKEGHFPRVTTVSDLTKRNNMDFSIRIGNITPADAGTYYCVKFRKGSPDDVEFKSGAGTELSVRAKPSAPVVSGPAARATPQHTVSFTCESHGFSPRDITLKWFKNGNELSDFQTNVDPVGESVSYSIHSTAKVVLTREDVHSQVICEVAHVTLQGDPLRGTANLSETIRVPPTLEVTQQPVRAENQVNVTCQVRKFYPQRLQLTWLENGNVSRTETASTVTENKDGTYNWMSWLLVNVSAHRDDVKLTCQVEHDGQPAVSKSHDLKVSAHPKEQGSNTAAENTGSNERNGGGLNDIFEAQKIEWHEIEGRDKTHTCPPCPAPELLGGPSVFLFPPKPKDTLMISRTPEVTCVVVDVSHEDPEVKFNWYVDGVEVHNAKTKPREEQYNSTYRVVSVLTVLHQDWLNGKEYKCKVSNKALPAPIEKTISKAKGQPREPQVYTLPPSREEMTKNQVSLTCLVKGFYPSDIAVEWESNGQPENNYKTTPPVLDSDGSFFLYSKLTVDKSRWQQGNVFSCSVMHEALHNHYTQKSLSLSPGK
Experiment [10] has as its target human SIRPβ1v1, extracellular domain, Avi-FXa-Fc tag (human). Nature of the experiment: SPR, captured biotinylated antigen.
Experiment [11] concerns the target human SIRPβ1v2, extracellular domain, Avi-FXa-Fc tag (human). Nature of the experiment: SPR, captured biotinylated antigen.
The target in experiment [12] is human SIRPγ, extracellular domain, Avi-FXa-Fc tag (human). Nature of the experiment: SPR, captured biotinylated antigen.
human SIRPγ, extracellular domain, Avi-FXa-Fc tag (human), sequence (chain, as listed by the source limits assumed): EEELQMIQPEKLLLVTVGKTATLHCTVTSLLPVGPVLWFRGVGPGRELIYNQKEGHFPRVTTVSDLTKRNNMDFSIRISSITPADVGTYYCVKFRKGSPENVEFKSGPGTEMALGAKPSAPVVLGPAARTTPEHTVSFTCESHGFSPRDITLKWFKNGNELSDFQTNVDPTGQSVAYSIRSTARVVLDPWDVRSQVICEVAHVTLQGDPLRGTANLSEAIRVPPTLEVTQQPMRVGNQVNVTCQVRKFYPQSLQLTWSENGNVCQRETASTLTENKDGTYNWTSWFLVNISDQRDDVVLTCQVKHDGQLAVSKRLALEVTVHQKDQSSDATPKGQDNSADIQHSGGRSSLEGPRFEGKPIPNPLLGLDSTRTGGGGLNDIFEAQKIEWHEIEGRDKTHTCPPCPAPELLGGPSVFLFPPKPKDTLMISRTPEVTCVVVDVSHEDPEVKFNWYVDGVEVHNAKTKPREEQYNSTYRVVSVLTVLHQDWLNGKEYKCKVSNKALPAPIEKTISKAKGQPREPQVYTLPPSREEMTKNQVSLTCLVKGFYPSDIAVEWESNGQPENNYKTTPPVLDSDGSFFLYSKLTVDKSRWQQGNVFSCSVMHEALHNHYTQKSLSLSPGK

human SIRPβ1v1, extracellular domain, Avi-FXa-Fc tag (human), sequence (chain, as listed by the source limits assumed): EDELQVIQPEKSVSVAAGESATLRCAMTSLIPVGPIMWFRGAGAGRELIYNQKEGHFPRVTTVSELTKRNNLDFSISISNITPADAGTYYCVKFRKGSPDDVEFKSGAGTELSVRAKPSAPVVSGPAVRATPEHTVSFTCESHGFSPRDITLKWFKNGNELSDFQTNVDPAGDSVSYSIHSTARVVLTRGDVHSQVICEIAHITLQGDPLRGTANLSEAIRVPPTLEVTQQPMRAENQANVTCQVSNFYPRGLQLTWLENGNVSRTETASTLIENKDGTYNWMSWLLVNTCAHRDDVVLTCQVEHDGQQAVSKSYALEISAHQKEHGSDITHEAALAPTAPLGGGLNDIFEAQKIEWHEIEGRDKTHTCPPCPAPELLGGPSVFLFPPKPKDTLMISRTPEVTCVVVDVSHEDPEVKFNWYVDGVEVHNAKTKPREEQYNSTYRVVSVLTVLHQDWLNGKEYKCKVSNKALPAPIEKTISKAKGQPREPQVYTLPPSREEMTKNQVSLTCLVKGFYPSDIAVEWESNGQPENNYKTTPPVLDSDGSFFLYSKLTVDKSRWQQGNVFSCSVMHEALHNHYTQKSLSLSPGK
human SIRPβ1v2, AVI-tagged, biotinylated, monomeric form (human), sequence (Q5TFQ8 30-371): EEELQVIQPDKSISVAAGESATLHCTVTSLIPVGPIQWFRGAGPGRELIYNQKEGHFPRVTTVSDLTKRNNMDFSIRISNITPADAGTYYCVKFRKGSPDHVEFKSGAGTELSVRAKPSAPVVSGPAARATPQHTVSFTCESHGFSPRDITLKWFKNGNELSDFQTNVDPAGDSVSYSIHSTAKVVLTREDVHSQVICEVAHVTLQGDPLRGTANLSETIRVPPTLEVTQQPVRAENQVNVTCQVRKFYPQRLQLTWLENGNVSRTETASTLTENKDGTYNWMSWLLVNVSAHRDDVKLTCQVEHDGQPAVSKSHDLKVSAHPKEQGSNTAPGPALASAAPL
human SIRPα1 expressed on cells (human), sequence (P78324 other isoform, or with tags, fused parts or gaps limits assumed): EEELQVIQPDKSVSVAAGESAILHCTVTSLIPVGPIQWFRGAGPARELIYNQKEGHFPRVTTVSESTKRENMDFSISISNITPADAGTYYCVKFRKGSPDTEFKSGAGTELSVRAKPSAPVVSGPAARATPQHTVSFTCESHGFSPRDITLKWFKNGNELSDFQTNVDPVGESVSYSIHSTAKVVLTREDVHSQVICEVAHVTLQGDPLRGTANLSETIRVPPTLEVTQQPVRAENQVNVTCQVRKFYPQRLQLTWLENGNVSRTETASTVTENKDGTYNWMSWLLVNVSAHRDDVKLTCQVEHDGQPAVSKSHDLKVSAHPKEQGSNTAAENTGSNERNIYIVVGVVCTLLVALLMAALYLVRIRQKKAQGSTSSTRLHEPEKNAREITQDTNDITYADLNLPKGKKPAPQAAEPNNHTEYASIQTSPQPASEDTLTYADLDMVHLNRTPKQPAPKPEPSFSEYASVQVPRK
human SIRPβ1v2, extracellular domain, Avi-FXa-Fc tag (human), sequence (chain, as listed by the source limits assumed): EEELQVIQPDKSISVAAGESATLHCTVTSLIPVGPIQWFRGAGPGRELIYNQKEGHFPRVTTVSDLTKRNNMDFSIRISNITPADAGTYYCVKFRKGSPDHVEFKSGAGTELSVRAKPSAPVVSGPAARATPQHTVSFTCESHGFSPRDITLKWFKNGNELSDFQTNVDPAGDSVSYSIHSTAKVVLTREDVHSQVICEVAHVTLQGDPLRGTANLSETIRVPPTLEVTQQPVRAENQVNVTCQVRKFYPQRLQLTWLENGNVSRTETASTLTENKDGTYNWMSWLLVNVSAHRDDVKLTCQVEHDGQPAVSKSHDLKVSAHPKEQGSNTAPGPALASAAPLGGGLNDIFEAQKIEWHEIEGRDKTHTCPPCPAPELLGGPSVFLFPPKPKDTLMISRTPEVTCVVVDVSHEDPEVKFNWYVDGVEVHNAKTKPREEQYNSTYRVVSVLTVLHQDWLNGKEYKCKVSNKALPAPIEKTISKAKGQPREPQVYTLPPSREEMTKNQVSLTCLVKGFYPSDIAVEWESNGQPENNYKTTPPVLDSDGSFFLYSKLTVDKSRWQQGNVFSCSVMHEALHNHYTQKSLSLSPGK

In general, EC50 refers to the concentration giving half of the maximal effect. The term Kd denotes the constant that tells how readily two partners part at equilibrium. For the substance “SE5A5 (mouse IgG1κ, Biolegend, purified anti-human CD172a/b) (antibody)”, the EC50 in [1] is 1.48 µg/mL; in [2] it was 0.05 µg/mL; in experiment [3] it was 0.09 µg/mL; in [4], 0.62 µg/mL. Besides, the Kd in [5] came out at 63.1 pM; in experiment [6] it was 358 pM; in experiment [7], 1800 pM; in [8], 15.4 pM; in [9], 798 pM; in experiment [10], 38.2 pM. Moreover, the Kd worked out at 287 pM in experiment [11] and 2660 pM in experiment [12].
